Patent US8597902B2, “Peptide protection against ultraviolet light toxicity” (Helix Biomedix, Inc., priority 2009, dated 2013)
Ends that are not written are not given here.

Experiments:
[1] = target: T1, Activated human Chk2 enzyme (Homo sapiens, UniProt O96017); test: K-LISA Checkpoint Activity Kit: Chk2 phosphorylation of biotinylated cdc25c surrogate substrate peptide; assay type: biochemical; conditions: peptide 50 μg/mL final concentration; for inhibition of the activity of Chk2 against the substrate peptide (in words): carboxy-terminal amidated peptides, absorbance 450/540 nm
T1 construct: purchased Sigma (St. Louis, MO)
T1 sequence (O96017 whole entry): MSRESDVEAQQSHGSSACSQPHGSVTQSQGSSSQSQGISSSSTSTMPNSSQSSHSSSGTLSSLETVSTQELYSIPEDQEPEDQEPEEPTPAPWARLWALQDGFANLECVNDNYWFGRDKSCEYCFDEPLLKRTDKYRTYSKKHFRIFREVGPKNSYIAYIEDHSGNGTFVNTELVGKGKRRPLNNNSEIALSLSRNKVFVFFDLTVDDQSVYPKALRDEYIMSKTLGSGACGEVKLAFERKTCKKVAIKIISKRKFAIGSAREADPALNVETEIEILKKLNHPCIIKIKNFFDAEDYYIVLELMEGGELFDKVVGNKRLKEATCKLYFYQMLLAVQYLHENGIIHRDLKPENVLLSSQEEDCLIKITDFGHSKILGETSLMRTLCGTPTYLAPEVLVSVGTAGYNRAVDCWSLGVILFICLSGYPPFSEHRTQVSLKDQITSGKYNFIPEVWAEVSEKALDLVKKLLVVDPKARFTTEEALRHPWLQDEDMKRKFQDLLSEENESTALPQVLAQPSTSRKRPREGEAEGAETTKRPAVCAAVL
Method: Activated human Chk2enzyme for these tests was obtained from Sigma (St. Louis, MO).
This incubation allowed for substrate phosphorylation by Chk2 and substrate capture in a single step. Following incubation, the phosphorylated substrate was detected using an anti-phosphoserine primary antibody, a horseradish peroxidase (HRP)-conjugated secondary antibody and TMB (tetramethylbenzidine) substrate for color development (the primary and secondary antibodies, and TMB, were provided in the K-LISA™ Checkpoint Activity Kit). Assay sensitivity was increased by the addition of the Stop solution provided in the kit. Relative Chk2 activity was determined by reading the absorbance of each well at dual wavelengths 450/540 nm.

[2] = target: Activated human checkpoint kinase 2 (Chk2) (human)

| Molecule | inhibition of the activity of Chk2 against the substrate peptide (in words) [1] | reduction of Chk2 phosphorylation activity ([1]; versus control Chk2 activity) | Reduction of Chk2 phosphorylation activity (K-LISA, absorbance 450/540 nm) [2] [%] |
| --- | --- | --- | --- |
| YHSLYESK (YHSLYESK-NH2; listed as Homo sapiens) [SEQ ID NO:5] | inhibited | – | – |
| HSLYQSH (HSLYQSH-NH2; listed as Homo sapiens) [SEQ ID NO:8] | inhibited | – | – |
| SLYQS-NH2 [SEQ ID NO:10 peptide (SLYQS; Ser-Leu-Tyr-Gln-Ser), carboxy-terminal amidated] | – | – | 48 |

The remaining lines, values ahead:

| inhibition of the activity of Chk2 against the substrate peptide (in words) [1] | reduction of Chk2 phosphorylation activity ([1]; versus control Chk2 activity) | Reduction of Chk2 phosphorylation activity (K-LISA, absorbance 450/540 nm) [2] [%] | Molecule |
| --- | --- | --- | --- |
| inhibited | – | – | FHSIYQSH (FHSIYQSH-NH2; listed as Homo sapiens) [SEQ ID NO:6] |
| inhibited | about 48% | – | SLYQS (not fully specified (C-terminus); listed as Homo sapiens) [SEQ ID NO:10] |
| inhibited | – | – | YHSLYQSHL (YHSLYQSHL-NH2; listed as Homo sapiens) [SEQ ID NO:2] |
| inhibited | – | – | YHSIYQSHI (YHSIYQSHI-NH2; listed as Homo Sapiens) [SEQ ID NO:3] |
